From a protein production outcome set (Wang et al. 2014) come the findings set out here.

The nature of this data set: label from the status in PepcDB records.

For the sequence “MHSPHDPYVRVRDAREHNLKGVDVDVPRDVLAVFTGVSGSGKSSLAFGTVYAEAQRRYFESVAPYARRLIHQIGAPKVGGITGLPPAVSLQQRRATPTSRSSVGTVTNLSNSLRMLFSRAGTYPPGAERLDSDAFSPNTAAGACPECHGLGRVHRTTEELLVPDPSLSIRDGAIAAWPGAWQGKNLRDVLDALGYDVDRPWRELPAEAREWILFTDEQPVVTVHPVREAGRIQRPYQGTYMSARRYVLKTFADSKSATLRAKAERFLNSAPCPVCGGGRLRAEALAVTVGGRTVAELAALPLAELPRLLPTEGEAAKVLAEDLISRIAPVVELGLGYLSLDRPTPTLSAGELQRLRLATQLRSGLFGVVYVLDEPSAGLHPADTEALLTVLERLKAAGNSVFVVEHHLGVMRGADWIVDVGPLAGEHGGRVLYSGPVDGLARVAESATARHLFDRSPAPVREVRTPRGAVTIGPVTRHNLRGVTVRVPLGVLTAVTGVSGSGKSTLVGEITEDLPGVDRLVSVDQRPIGRTPRSNLATYTGLFDVVRKVFAATDRARERGFGVGRFSFNVPGGRCETCQGEGFVSVELLFLPSTYAPCPDCGGARYNPETLEVAYRGRNIAEVLDLTVEGAAQFFTDTPAVARSLAALLDVGLGYLRLGQPATELSGGEAQRIKLASELQRGRRGHTLYLLDEPTTGLHPADVEVLMRQLHGLVDAGHTVVVVEHDMSVVAGADHVIDLGPGGGDAGGRIVAEGTPARVAGAAGSATAPYLARALDGGERR”, the protein production entry is given as “failed”.
For “MHSTLLRTALLTAALGSFSHTATAEGVMVHLFQWKFNDIANECETVLGPKGFGGVQITPPAEHKQGSQVWWTVYQPVSFKNFNSFGGSEAELRSMIARCNAAGVKVYADAVFNQLASGSGTATGGGSYNAGQYQYPQFGYNDFHHSGDITNYGDSNNVWNGALYGMPDLNTGSPYVQDQIATYMKTLLGWGVAGFRIDAAKHMAPTDVKAILDKAGSPKAYLEVIGAGGESPDIQPGRYTYIDTVTDFKYGTDLAANFNGQIKNLKTLGESWGLLPSAKAFVFVVNHDRERGHGGGGMLTFMSGARYDLANTFMIAWPYGWKQVMSGYRFENMSTYETDKGAPGSTPCTDSQWNCEQRRPTIMNMALFHNRTEGQPVSNWWDNGNNQIAFGRGDKGFVAINNESGSLVASLQTALPAGEYCNLLGGNDYCSGGYVTVDGSGKASLNVPGMKAAAIIAGCTKASPCGGSALPGTKFSSMNLRGTHNAWGNTPMTVDANRVWSATLTLTGNGDATGAQRFKFDVFGNWAENYGDNEGDGIADKGSSKDILVSGAGSYRITLNESDLRYTVTPLTSNQAPVAALSPKTLSVKAGESVVFDASASHDDGGVVSYSWSSGGTAATETVRFDTPGTYTVTVTVTDAEGLTASASATVTVTDDNGTYTSVLPTLNFRGTPNAWGSLAMTLVADNQWEALVTFNGQANQRFKFDVKGDWSKNYGDTNKDGVAELAGSDILTSVTGQYRVRFNDQTLQYSLTPVSVGYAKNFASLNIRGTTNNWGSTPMSLVGDHLWQASVTFTGSGDGNGGQRFKFDVKGDWTQNYGDTNRDGVAEQAGADITTALVGVYVVRFNDQTLAYSLNAQ”, the protein production result was “failed”.
Next, “MHTALINHIRKFIFLTDEDAGTLSAFFQLKKVRKKETLLKTGEICRINYFVVKGCLRLFFIDEKGIEQTTQFAIENWWLSDYMAFQKQQPADFYIQSVENCELLSITYTEQENLFERIPALERYFRLVYQKSFAAAQLRSKFQHMYSKEEQYHNFSSRFPEFIQRVPQYLLASYLGFTPEYLSEIRKKYIS”: “not failed”; “MHTARFPSSATPSIFFRYFMALNEQDVARIARLALIELPPDQRGRAQAELNGILHLIERLQAVDTQGVEPLAHPLSAHEDITLRLREDAVSEQATEARRAELLANAPESADGLFLVPKVIE”: “failed”; “MHTLEQLRAGALTGIQALKLSENLTEVPAEVFQLADTLEILDLSGNRLHSLPQEMACLTRLRILFLSDNDFTIFPEVLKELKQLDMLGIKANNIQVIAEDAIPVSLRWLILTDNCIEALPVSIGRCTKLQKVMLAGNQLSGLPDELAACRNIELLRISANNMHTFPEVVKQLPRLAWLAYSSNPFQVNRSSFNALPVIAWENVALMEQLGAGASGIIYKARLNTGKSPEDVAVKVFKGAVTSDGLPEDEMTACMQAGRNSHLVSVLGVIGGHPEGMHGLVMELIPAEYKNLGRPPSFVTCTRDTFAAGTRFTAQQMLLILKGVAEAAKQLHDNGIMHGDLYAHNTLINEKYHSLFGDFGAATLYDKNNRDEAFFLERLDVRAFGCLADDLLQYSVCTKEDEWCLETLKRLSAGCMNEEPDKRPAFNTIVYELQLLQNTHLEHHHHHH”: “not failed”.
The value for “MHVDIELPLGRATALQRLRAQGFCVLTPAALETLTGMPLDAFDMMLPYWEELAPDLHLKDGGHYRYRRHGCFMQTLQPGQLETVQHRAHWQPTTYNALHGGMERWFEPLSNEMIHLPSWSALLVALGELFAKLRAPQGGRWYIEAHPFRIDTEGGVGRPTPEGAHRDGVDFVAVVFIGRQGVRGGETRVFDAAGPQGVRFTLEQPWTVLLLDDQQVIHESTPLLPLDPADPAVPAHRDTLVLTYRSGGFQAPA” was “not failed”.
On to “MHVEQTRINMQSQGQSHQLPSAAHILLDQNPNSTGSNLVVKQNDIQSLSSVGLLELAHREYQAVDYESAEKHCMQLWRQDSTNTGVLLLLSSIHFQCRRLDKSAQFSTLAIKQNPVLAEAYSNLGNVFKERGQLQEALDNYRRAVRLKPDFIDGYINLAAALVAARDMESAVQAYITALQYNPDLYCVRSDLGNLLKALGRLEEAKACYLKAIETCPGFAVAWSNLGCVFNAQGEIWLAIHHFEKAVTLDPNFLDAYINLGNVLKEARIFDRAVAAYLRALNLSPNNAVVHGNLACVYYEQGLIDLAIDTYRRAIELQPNFPDAYCNLANALKEKGQVKEAEDCYNTALRLCSNHADSLNNLANIKREQGYIEEATRLYLKALEVFPDFAAAHSNLASVLQQQGKLKEALMHYKEAIRIQPTFADAYSNMGNTLKELQDVSGALQCYTRAIQINPAFADAHSNLASIHKDSGNIPEAIQSYRTALKLKPDFPDAYCNLAHCLQIVCDWTDYDIRMKKLVSIVTEQLEKNRLPSVHPHHSMLYPLTHDCRKAIAARHANLCLEKVHVLHKKPYNFLKKLPTKGRLRIGYLSSDFGNHPTSHLMQSVPGLHDRSKVEIFCYALSPDDGTTFRHKISRESENFVDLSQIPCNGKAADKIFNDGIHILVNMNGYTKGARNEIFALRPAPIQVMWLGYPGTSGASFMDYIITDSVTSPLELAYQYSEKLSYMPHTYFIGDHKQMFPHLKERIIVCDKQQSSVVDNVTVINATDLSPLVENTDVKEIKEVVNAQKPVEITHKVAELPNTTQIVSMIATGQVQTSLNGVVVQNGLATTQTNNKAATGEEVPQNIVITTRRQYMLPDDAVVYCNFNQLYKIDPQTLESWVEILKNVPKSVLWLLRFPAVGEQNIKKTVSDFGISPDRVIFSNVAAKEEHVRRGQLADICLDTPLCNGHTTSMDVLWTGTPVVTLPGETLASRVAASQLATLGCPELIARTREEYQNIAIRLGTKKEYLKALRAKVWKARVESPLFDCSQYAKGLEKLFLRMWEKYENGELPDHISAV”, for which the protein production entry is recorded as “failed”.
Next, “MHVNPLISVARSKASALFAALALVLVVTLTLAGCSSDKSGETTAEAKKDPSSIRVVALDWRYEEILHALGITPVGIVEIGKSKEPQTLKGELEGVTSVGQAKQPNLEVIQSLEPDLILASPTRQAAIMDQLKEIAPTHAYGDTSYTEVLDAMDDIATKVGAEDKAKEVRTRIESKIAQAKNKVEPGTRTALIGWSKNTLYTWVKDSFAGSLLTAAGYEYGYDGEKSAIESKTDVAELTGDKLPEMKLDVMYLYNDIEGFRSSPYADVVSNIVDVEQDTWSRSRGPLAAEAMLDQIINS”: “failed”; “MIAAVAVFALTYVAVAAGRFPYLSLDRPAAALLGAVLMVALGVLTPAEGGAAVNGETLGLLLGMMVLTAYLGEAGFFRWASWRVLRAAGTPRTLLWGVVFTAGALSALLVNDTVCLMMTPLVLRMVDDADLPPLPYLLAVAFGSNAGSAATLTGNPQNMIVGTLSGIGYGRFAAALALPALASLLLVAALLHALFRRALPRGPLAGGRPAAPAVDRALLAKALGALALAVTGFLLGLELAWTALFAAALCMAIAGRAPREALQRVDWPLLVFFAGLFVVVAGIGRAGVTERMYQAVAPLLGADPARQSAVFGLFSIAASQVVSNVPFVILAGEWIPRLADPTLLWLATALCATLAGNLTIVGSVANVIVLELAGSRGRIGFWRFFRVGAVVTAATVAAGLGILLLEHRLGLIG”: “failed”; “MIALHTLLCADTPDDTPVCFDETTTMTRGMFRAHVAACIAAWSDRCANRYALCIDDPFAFACALFALLASGKAVVIPASSAPAYLASIADAYDSALTDGDMEGIISQAAQPPGAALLRPIAPHAPITLYTSGSSAAPKAIHKTLAQFDAEVRTLEDHWGEWIGPGAILASVPHHHIYGLLFRIFWPLASGRAFGRRTYAEPHALQTALTRRETAAIVSSPAQLARWPSLPGFDTLSPLPAAVFSSGGPLDEAAAATFASAHGTAPTEIYGSTETGGIAWRRRNESDAWQAFANVAVRREADGALSVRSPHLGHPDWHRTDDAAEFDDAGRFRLRGRMDRIVKLDGKRVSLPEIENWLGLHPYVAQSAAVLLPGASRERLGVLSALTSAGVEALRQHGRIGLAKTLRRHLAAYVAPTLIPRKWRFRMSLPVDARGKLPASAVAASFAAGRKGFEMLSHVRDAEGDHYELRVPPELVHFRGHFPGLPILPGVVLVDWIACLAAELADSTRSIRSIDQLKFMAPVPPAALVSVQLTHEPQRCRVRFRARLGTRECASGALVYREAD”: “failed”.
On to “MIAPSRNLLLCNKGKTELNHSFSMLQAIVESTPYGLLVTNKHGHLLCYNQPYMDMWRIPPEVMVNARHQIIFGHYSSQLRDPQQFLHSTEVIYGTWLPESFDILEFLDGRAFERHTKATTLEGPNMVRVWSFKDITERRQAEAYKAQLAAMVESSDDAIIVKDLNAIITSWNAGAERIFGYQASEITGSSILALIPPERHEEEKGIMSLVKSGNRVDHFETMWWGKGKKPIDVSVTTSAVKDSDGNIVGISQIARDITKRKESQKRIEYLAHYDPLTGLPNRALLADRMKTAIENAKRYSFQLAVLFVDLDHFKLINDSLGHEIGDKLLKIVAERMRSRLRQTDTVSRLGGDEFIILLSRINAASDAACVAEKIIAALSQPYHLEQHELGLGASIGISIYPDSGKDTSSLLRSADEAMYSAKGQGRNRYHGP”, for which the protein production entry is reported as “failed”.
On to “MIATTSQQSFNLLRTLAVQKASDFADEFYIYMLKDQEASLFLSSQQVHDRLHGSMSKWIADILTNTGDSLADLINHQKKIGQIHARIGIPVDLVERGARRLKWHLYEHIAQVADDKALCFDAMRFASISMDIAIEIMSKTYSQSHDLEHHHHHH”, for which the protein production entry is listed as “failed”.
For “MICLPETGFLAEASPRLKQMLAAQAAEIGLARGDTLFKQGDPGDALYAVLSGALEISILSLDGRKLSLDLVGPGAVFGEIALFDPGPRTATVSAAEPARVLRVLSADVMAELRRHPELAIDMVRLAGQRMRWMGGQLNEQVFLPVPTRLARKLLHLAPHHDAGGATVRLSQAELAEYVGATREAVSKTLAHWKRMGVIEVARGTLAIRDPQALRALADPDQI”, the protein production result was “failed”.
As to “MIDALLNFDFIRYSLISGLLIGFIAPLIGAFIVVRRLSLIADALSHVTLGGISFGMFLLTIIPVFSVINPMWFGILFAVIGALLIEKLRTSFSNYQEIAIPIIMSAGIALSAIFISLADGFNQEIVGLLFGSISAVNISDLTTIIIITIIVLIFIVLFYKELFILSFDEEYSKVIGIPKWIQFLFIVIVAMVISASMRVVGILLVSALITLPIAISMRITKGFKQLIALSVILGELSVILGLIIAFYMNISPGGVIVVLLVLMLILTMIIQKLKIKFKKGVV”, the protein production result is “failed”.
The value for “MIDCLVMAGGQGARMGFREKPLLSVCGQPMLLRVLSALRMACRRIAIVYSRHTPGVKRLCLSGALGAVECIEGPGSYVKDLRLGFSHISTPLLVAPADMPFLNPHHLNLFIDRALADGASIVNLSLRGRGLTGLSVFKHHRGWWRDVETNGCWALDVDTWEDFRRAGELCGGECTGEGLRLELLEHHHHHH” was “failed”.
